The supplement of paper PMC6757056
± gives the standard deviation of the averaged measurements.

B1: library; a variant is named by its letters at N, in order (parent)
chain: GCUGUCACCGAGAAACUGUGAAGUAUAUCUUAAACCUGGGCACUUAAAAGAUAUAUGGAGUUAGUAGUGCAACCUGCUCGGUCUGAUGAGUCCNNNNNNGGACGAAACAGC

What was measured:
cyclic di-GMP [1] = variants of: B1; assay: normalized RNA/DNA level without ligand (relative to sTRSVctl = 100) (log10 (% of sTRSVctl)); HEK293T; ligand: cyclic di-GMP (c-di-GMP-II aptamer); higher = less ribozyme self-cleavage, higher mRNA level; settings: reporter: mCherry (pCS4076), ligand present: no
Summary of the method: (§1)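 Ribozyme switch library plasmids with mCherry reporters (eGFP in certain ligand experiments) went into HEK293T cells at 4 µg per 6-well well. Where ligand was used, it was applied 1 h before transfection, and total RNA was extracted with EDTA 72 h later for reverse transcription, amplification, barcoding and sequencing. RNA level is the RNA-to-DNA read ratio normalized to a spiked-in non-cleaving sequence or to the leading sequences, then scaled and log-transformed. Scaling was ×100 with log10, the leading set comprised 25 sequences, and the cutoff was ≥100 DNA reads.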

cyclic di-GMP [2] = variants of: B1; assay: normalized RNA/DNA level with ligand (relative to sTRSVctl = 100) (log10 (% of sTRSVctl)); HEK293T; ligand: cyclic di-GMP (c-di-GMP-II aptamer); ligand concentration (+) RNA-Seq: 1 mM; higher = less ribozyme self-cleavage, higher mRNA level; settings: reporter: mCherry (pCS4076), ligand present: yes
Summary of the method: as §1

| Variant | normalized RNA/DNA level without ligand (log10) (cyclic di-GMP [1]) | normalized RNA/DNA level with ligand (log10) (cyclic di-GMP [2]) |
| --- | --- | --- |
| AAUUCA | 1.62 ± 0.078 | 1.8 ± 0.12 |
| AAUUCG | 1.6472 ± 0.0012 | 1.8 ± 0.12 |
| AAUUCU | 1.769 ± 0.0077 | 1.9 ± 0.092 |
| AAUUCC | 1.79 ± 0.028 | 1.88 ± 0.14 |
| GAUCAG | 1.8 ± 0.054 | 1.9 ± 0.13 |
| GAUCAC | 1.727 ± 0.016 | 1.84 ± 0.085 |
| CCAAAA | 1.35 ± 0.091 | 1.62 ± 0.079 |
| CCAAAG | 1.41 ± 0.056 | 1.61 ± 0.1 |
| GAUAUG | 1.52 ± 0.028 | 1.71 ± 0.096 |
| GAUAUC | 1.6972 ± 0.0005 | 1.86 ± 0.12 |
| GAUAUU | 1.61 ± 0.019 | 1.8 ± 0.13 |
| GAUAUA | 1.53 ± 0.032 | 1.7 ± 0.1 |
| CAUGUC | 1.72 ± 0.035 | 1.82 ± 0.088 |
| CAUGUG | 1.71 ± 0.022 | 1.85 ± 0.092 |
| CAUGUU | 1.72 ± 0.043 | 1.88 ± 0.085 |
| CAUGUA | 1.44 ± 0.081 | 1.65 ± 0.072 |
| GAGUGG | 1.84 ± 0.043 | 1.9 ± 0.12 |
| GAGUGU | 1.77 ± 0.049 | 1.89 ± 0.09 |
| GAGUGC | 1.785 ± 0.006 | 1.86 ± 0.13 |
| UAUAAU | 1.66 ± 0.063 | 1.8 ± 0.099 |
| UAUAAG | 1.66 ± 0.03 | 1.82 ± 0.14 |
| UAUAAC | 1.697 ± 0.015 | 1.85 ± 0.12 |
| CAUCCG | 1.82 ± 0.035 | 1.88 ± 0.09 |

| Variant | normalized RNA/DNA level without ligand (log10) (cyclic di-GMP [1]) | normalized RNA/DNA level with ligand (log10) (cyclic di-GMP [2]) |
| --- | --- | --- |
| CAUCCU | 1.6 ± 0.03 | 1.77 ± 0.1 |
| UAGUGC | 1.69 ± 0.024 | 1.82 ± 0.13 |
| UAGUGU | 1.62 ± 0.034 | 1.81 ± 0.13 |
| GAUCUA | 1.67 ± 0.032 | 1.81 ± 0.097 |
| GAUCUC | 1.75 ± 0.02 | 1.89 ± 0.15 |
| GAUCUU | 1.673 ± 0.0037 | 1.8 ± 0.091 |
| GAUCUG | 1.708 ± 0.016 | 1.84 ± 0.07 |
| GAUAAG | 1.54 ± 0.036 | 1.72 ± 0.1 |
| GAUAAC | 1.675 ± 0.0073 | 1.85 ± 0.1 |
| GAUCCC | 1.79 ± 0.027 | 1.89 ± 0.082 |
| GAUCCG | 1.88 ± 0.068 | 1.95 ± 0.15 |
| GAUCCU | 1.7 ± 0.025 | 1.84 ± 0.13 |
| GAUCCA | 1.71 ± 0.032 | 1.85 ± 0.1 |
| AAUGAC | 1.63 ± 0.018 | 1.79 ± 0.081 |
| AAUAAG | 1.52 ± 0.064 | 1.7 ± 0.096 |
| AAUAAC | 1.634 ± 0.013 | 1.8 ± 0.092 |
| AAUAAU | 1.63 ± 0.051 | 1.8 ± 0.077 |
| UAUACC | 1.76 ± 0.053 | 1.86 ± 0.1 |
| UAUACG | 1.75 ± 0.029 | 1.85 ± 0.11 |
| UAUACA | 1.711 ± 0.0027 | 1.85 ± 0.12 |
| CAGUGU | 1.718 ± 0.0057 | 1.84 ± 0.12 |
| CAGUGG | 1.68 ± 0.022 | 1.86 ± 0.065 |
| CCAACG | 1.71 ± 0.049 | 1.85 ± 0.1 |

| Variant | normalized RNA/DNA level without ligand (log10) (cyclic di-GMP [1]) | normalized RNA/DNA level with ligand (log10) (cyclic di-GMP [2]) |
| --- | --- | --- |
| CCAACA | 1.53 ± 0.029 | 1.72 ± 0.13 |
| UCAACA | 1.708 ± 0.0058 | 1.81 ± 0.096 |
| UCAACC | 1.78 ± 0.044 | 1.9 ± 0.067 |
| CAUUCU | 1.55 ± 0.07 | 1.73 ± 0.12 |
| CAUUCC | 1.781 ± 0.0028 | 1.87 ± 0.041 |
| CAUUCA | 1.38 ± 0.087 | 1.56 ± 0.12 |
| CAUUCG | 1.83 ± 0.091 | 1.95 ± 0.14 |
| AAUCCA | 1.65 ± 0.025 | 1.79 ± 0.088 |
| AAUCCC | 1.77 ± 0.032 | 1.86 ± 0.087 |
| AAUCCU | 1.73 ± 0.073 | 1.86 ± 0.11 |
| AAUCCG | 1.83 ± 0.037 | 1.93 ± 0.028 |
| UAUAGG | 1.68 ± 0.023 | 1.85 ± 0.11 |
| AAUUGU | 1.66 ± 0.061 | 1.83 ± 0.075 |
| AAUUGC | 1.696 ± 0.016 | 1.83 ± 0.091 |
| AAUUGA | 1.49 ± 0.096 | 1.72 ± 0.083 |
| GAUGCU | 1.73 ± 0.033 | 1.85 ± 0.12 |
| GAUGCC | 1.772 ± 0.014 | 1.84 ± 0.1 |
| GAUGCG | 1.82 ± 0.063 | 1.89 ± 0.13 |
| UAUGGA | 1.53 ± 0.017 | 1.73 ± 0.098 |
| UAUGGG | 1.57 ± 0.078 | 1.73 ± 0.1 |
| UAUGGC | 1.708 ± 0.015 | 1.82 ± 0.12 |
| CAUAUU | 1.45 ± 0.13 | 1.64 ± 0.067 |
| CAUAUG | 1.718 ± 0.017 | 1.81 ± 0.053 |

| Variant | normalized RNA/DNA level without ligand (log10) (cyclic di-GMP [1]) | normalized RNA/DNA level with ligand (log10) (cyclic di-GMP [2]) |
| --- | --- | --- |
| CAUAUC | 1.63 ± 0.069 | 1.79 ± 0.047 |
| UAUUGC | 1.76 ± 0.025 | 1.87 ± 0.088 |
| UAUUGG | 1.75 ± 0.061 | 1.87 ± 0.076 |
| UAUUGU | 1.67 ± 0.034 | 1.81 ± 0.11 |
| UAUUGA | 1.6713 ± 0.00062 | 1.83 ± 0.1 |
| AAUUAC | 1.72 ± 0.068 | 1.83 ± 0.099 |
| AAUUAG | 1.6 ± 0.029 | 1.76 ± 0.11 |
| AAUUAU | 1.67 ± 0.03 | 1.82 ± 0.1 |
| GAUGUU | 1.62 ± 0.037 | 1.78 ± 0.086 |
| GAUGUG | 1.71 ± 0.032 | 1.8 ± 0.1 |
| GAUGUC | 1.7082 ± 0.001 | 1.87 ± 0.12 |
| UAUCCA | 1.77 ± 0.062 | 1.86 ± 0.097 |
| UAUCCU | 1.755 ± 0.013 | 1.87 ± 0.13 |
| UAUCCC | 1.83 ± 0.0035 | 1.9 ± 0.055 |
| UAUCCG | 1.8 ± 0.022 | 1.87 ± 0.095 |
| UAGUUC | 1.71 ± 0.031 | 1.89 ± 0.057 |
| UAGUUA | 1.67 ± 0.025 | 1.83 ± 0.13 |
| CAUUUC | 1.67 ± 0.022 | 1.82 ± 0.14 |
| CAUUUU | 1.535 ± 0.0069 | 1.76 ± 0.16 |
| CAUUUG | 1.75 ± 0.062 | 1.91 ± 0.095 |
| UAUGCA | 1.77 ± 0.061 | 1.87 ± 0.16 |
| UAUGCC | 1.81 ± 0.042 | 1.91 ± 0.15 |
| UAUGCU | 1.72 ± 0.043 | 1.86 ± 0.11 |

| Variant | normalized RNA/DNA level without ligand (log10) (cyclic di-GMP [1]) | normalized RNA/DNA level with ligand (log10) (cyclic di-GMP [2]) |
| --- | --- | --- |
| UAUGCG | 1.78 ± 0.029 | 1.86 ± 0.1 |
| UAUCAU | 1.656 ± 0.0018 | 1.81 ± 0.12 |
| UAUCAG | 1.72 ± 0.028 | 1.84 ± 0.13 |
| UAUCAA | 1.7 ± 0.031 | 1.83 ± 0.11 |
| GAUGGC | 1.68 ± 0.051 | 1.8 ± 0.13 |
| GAUGGG | 1.54 ± 0.081 | 1.67 ± 0.16 |
| GAUGGU | 1.64 ± 0.057 | 1.8 ± 0.063 |
| AAUAGC | 1.62 ± 0.047 | 1.8 ± 0.1 |
| AAUCAC | 1.71 ± 0.027 | 1.83 ± 0.096 |
| AAUCAA | 1.51 ± 0.1 | 1.73 ± 0.078 |
| AAUCAU | 1.64 ± 0.02 | 1.78 ± 0.093 |
| AAUCAG | 1.61 ± 0.057 | 1.76 ± 0.026 |
| AAUCGG | 1.6 ± 0.048 | 1.76 ± 0.12 |
| AAUCGU | 1.65 ± 0.038 | 1.81 ± 0.11 |
| AAUCGC | 1.74 ± 0.018 | 1.89 ± 0.12 |
| AAUCGA | 1.49 ± 0.07 | 1.69 ± 0.094 |
| ACAAAC | 1.55 ± 0.084 | 1.72 ± 0.091 |
| ACAAAG | 1.4 ± 0.073 | 1.6 ± 0.06 |
| CAUUGU | 1.78 ± 0.023 | 1.88 ± 0.046 |
| CAUUGC | 1.78 ± 0.056 | 1.85 ± 0.15 |
| CAUUGG | 1.804 ± 0.0056 | 1.93 ± 0.15 |
| CAUUGA | 1.602 ± 0.0057 | 1.76 ± 0.13 |
| AAUGCU | 1.73 ± 0.036 | 1.85 ± 0.12 |
